± gives the uncertainty stated by the source.

This data set is described as follows: amyloid nucleation score (Sup35N fusion, yeast selection) (log enrichment); library NNK1; higher = more nucleation; inactive = no reads after selection. Put shortly:
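The nucleation score, computed with DiMSum, is the log enrichment of output over input reads, centred on the mode score of non-aggregating sequences. Sequences with under 100 input reads were dropped. Reads were generated by Illumina sequencing of plasmid inserts from psi-negative yeast with Sup35N fused to peptides of 20 random codons, induced with 100 μM copper sulfate for 24 hours and grown 7 days at 30°C on medium lacking adenine and uracil.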

On to VGSQKCLYCGVAYSEGVWIY, for which the amyloid nucleation score entry was “inactive”.

Substance LDRAVHPGVVSPWSQVTRTM registered an amyloid nucleation score of 0.749 ± 0.38.

GTSSRNLAFLVPWMVYMRVR yielded an amyloid nucleation score of 0.635 ± 0.41.

Consider YVVCYFDNLFLSSISLSLRA, for which the amyloid nucleation score turned out to be 8.521 ± 0.058.

Take VGNRCGVL: the amyloid nucleation score is 0.05 ± 0.33.

SISNTLLGLEEWLPNYVNVF had an amyloid nucleation score of 0.871 ± 0.49.

On to DSRFHSLGVLAHMPRDCNCG, for which the amyloid nucleation score turned out to be 0.853 ± 0.86.

Regarding EIMFDWVMMEKKCRILHKKT, the amyloid nucleation score result is “inactive”.

As to YAFLSEYFSAK, the amyloid nucleation score was -0.054 ± 0.24.

In the case of LRKGTVRLSSFEKWYMVRTG, the amyloid nucleation score is -0.701 ± 0.7.

In turn, RACVNSHQRMGGDGSLSMVL showed an amyloid nucleation score of 2.48 ± 0.15.

In turn, SRLSLT displayed an amyloid nucleation score of 0.179 ± 0.82.

SIRMGSEVRSDNEMVMRWQM: the amyloid nucleation score was 3.67 ± 0.16.

As for WVCLNYYWGCVRRTTRVFCL, the amyloid nucleation score is -0.198 ± 0.52.

On to SAELKDLRGKQLLAGGP, for which the amyloid nucleation score was found to be 0.53 ± 1.1.

ANNNEYRFWTTSYW: the amyloid nucleation score is 0.041 ± 1.4.

The substance PTRLPYGTSLIWDTSHANWG yielded an amyloid nucleation score of -0.706 ± 0.59.

YSGWEEITVFFSDARV displayed an amyloid nucleation score of -0.115 ± 1.3.

Substance TFSFARLRDLKWVMPRVRRS gave an amyloid nucleation score of 0.27 ± 0.44.

In turn, ASRYGDF had an amyloid nucleation score of 0.555 ± 0.42.

Substance DRCNDAVGRKRRRTKMRGLY gave an amyloid nucleation score of 0.457 ± 0.45.

Consider QWLYYVKEPIAYSLL, for which the amyloid nucleation score was determined as 0.46 ± 0.24.

For the substance CNIMRSLWLGAIVCMSTMYC, the amyloid nucleation score was -0.396 ± 0.73.

For the substance FKRCKRIPDPQSIGSRHFGA, the amyloid nucleation score is 0.568 ± 0.58.

As for IHSQHKHVIMRA, the amyloid nucleation score was -0.061 ± 0.57.

Substance CVLSNRNFNYVAYTYKLQYP registered an amyloid nucleation score of 1.19 ± 0.32.

Take LRNVYLSGKFVYRGELNCET: the amyloid nucleation score stood at 0.95 ± 0.31.

TKIKYGDKSPKHYYMAS returned an amyloid nucleation score of -0.174 ± 0.6.

Turning to TLSTRTIHSCSEYYSGMCVL, the amyloid nucleation score amounted to 0.089 ± 0.93.

YNVKVMCSVQSEMRGIT: the amyloid nucleation score worked out at 0.465 ± 0.68.

For FFNVVYLTRANASYTGYSNI, the amyloid nucleation score was determined as 5.41 ± 0.063.

ACDRMGGVSGPDSAAVWPYI came in with an amyloid nucleation score of -1.91 ± 2.7.

MFGGGWDAKWPPIPCLKKVD displayed an amyloid nucleation score of 0.308 ± 0.43.

Take GWMVRMLEHYHPAV: the amyloid nucleation score was -0.226 ± 0.42.

Regarding LFYDDEES, the amyloid nucleation score result was “inactive”.

KANPDHIPRRLDYRGSGPSR came in with an amyloid nucleation score of -0.482 ± 0.94.

In turn, SQYSADSVHGCHLSVSPTWF had an amyloid nucleation score of 1 ± 0.81.

Substance FSRFWISSKHT returned an amyloid nucleation score of -1.33 ± 1.3.

Turning to CYSMNEFFGNLHVSTRTHGK, the amyloid nucleation score was -0.944 ± 0.66.

In the case of RVIFSGYWRAIFSLS, the amyloid nucleation score is -0.383 ± 0.66.

Consider FGLIKWWDGVWWLSDLRRLH, for which the amyloid nucleation score was found to be 0.979 ± 0.65.

In the case of GSQIWW, the amyloid nucleation score stood at 0.517 ± 0.46.

With RVNLFSPYAWCIQIGSHHYG, the amyloid nucleation score was 7.444 ± 0.047.

Take LPKKDNHSSTNA: the amyloid nucleation score was -1.77 ± 2.4.

Substance FNLRKRRA gave an amyloid nucleation score of 0.205 ± 0.38.

Substance RLVCKFRMRKSNRGVRNMLC came in with an amyloid nucleation score of 0.797 ± 0.53.

Substance FLILLGLVEDGTLYAVRTVG returned an amyloid nucleation score of -0.849 ± 0.8.

On to VYAYTQLKQGRRHEQGTWS, for which the amyloid nucleation score result was “inactive”.

In the case of PSCRC, the amyloid nucleation score entry is “inactive”.

PSCILMNLEVYND had an amyloid nucleation score of 0.827 ± 0.42.

FSGGGNITACGCV had an amyloid nucleation score of -0.385 ± 0.65.

With PWRAGYGRRKLLSEGDFRLS, the amyloid nucleation score was found to be 0.218 ± 0.62.

Take DYKHNPKWKMCKCLLAIRNY: the amyloid nucleation score came out at 1.53 ± 0.51.

In turn, EVIRLDSIFLETGVRSCFQY came in with an amyloid nucleation score of 0.041 ± 0.73.

LCFLWIGVP displayed an amyloid nucleation score of -0.241 ± 1.

Consider LGRGRKSTMVSQRVERAGVC, for which the amyloid nucleation score is -0.626 ± 0.58.

For HMSWMYEWMNVTCKVNMCR, the amyloid nucleation score amounted to 2.06 ± 0.24.

The substance SGVLVGYHRDLDVDMNLNPM displayed an amyloid nucleation score of -0.419 ± 0.4.

SVVRNEIYRYYKCSKTVSIW yielded an amyloid nucleation score of -0.513 ± 0.33.

Consider GIRPNIANFSYKVHHPVLRG, for which the amyloid nucleation score result was “inactive”.

With YVGSRSAVNIGIICGSRLNE, the amyloid nucleation score was -0.739 ± 1.5.

As for HVIQKSN, the amyloid nucleation score was -0.988 ± 0.5.

For the substance DLPWSMLKVL, the amyloid nucleation score came out at 0.689 ± 1.2.

Substance NISSQEPISRAATSRKVAGQ had an amyloid nucleation score of 0.466 ± 1.4.

On to CSGNSSGVRCMVRSNRS, for which the amyloid nucleation score was 0.523 ± 0.38.

The substance SWLCHRTSVLVPVVSISRKL came in with an amyloid nucleation score of 1.15 ± 0.7.

LWFQLLMLEFSRNKPIQTVG showed an amyloid nucleation score of -0.138 ± 0.64.

With MDVPFLRKN, the amyloid nucleation score was 0.154 ± 0.66.

Substance DPYMNWIVLYSGVRHWNGVM came in with an amyloid nucleation score of 0.056 ± 1.4.

TLFLVWILGVTKSRITGTPS showed an amyloid nucleation score of 0.325 ± 0.73.

Regarding DSQGFMRVISLMFVDGSLLA, the amyloid nucleation score worked out at 0.591 ± 0.54.

As to NLSGRSLSRLIDLFNRFTC, the amyloid nucleation score turned out to be 0.919 ± 0.29.

In turn, MSMLLDSDCLRYFSQEVFWV gave an amyloid nucleation score of -0.742 ± 1.4.

Regarding YGNWFYIFFS, the amyloid nucleation score amounted to 6.471 ± 0.054.

In the case of CMVMFCCWNMWVDSVH, the amyloid nucleation score came out at 7.237 ± 0.069.

Regarding GSWQDSRRNFWSGRGMFERV, the amyloid nucleation score turned out to be 0.484 ± 0.47.

Substance RIIYGCCAVRFARSMAKHPM displayed an amyloid nucleation score of -0.716 ± 0.38.

As for PNTLYSLTIIMSARLNSSLL, the amyloid nucleation score worked out at 0.371 ± 0.57.

With NCYLLFFCRLSSLSYAYQVY, the amyloid nucleation score was -0.815 ± 1.2.

Consider IKAELAKCLNTACVKFFCDV, for which the amyloid nucleation score came out at 0.715 ± 0.37.

The substance IFLPYI returned an amyloid nucleation score of -0.383 ± 1.4.

In turn, DNINKLSWTRSILELG registered an amyloid nucleation score of -0.452 ± 0.62.

Substance WLYMRGPKVVRSCREITARA came in with an amyloid nucleation score of 0.413 ± 1.4.

For the substance TTYYRFNVDKTFSAVISAEF, the amyloid nucleation score was -1.02 ± 2.4.

Turning to MRSIH, the amyloid nucleation score was -0.11 ± 0.74.

On to IALLNGNNLSPT, for which the amyloid nucleation score stood at 9.502 ± 0.052.

MAVYFLGFIA returned an amyloid nucleation score of 0.604 ± 0.59.

Take NGNNQYRPVCDYSYYRRSCS: the amyloid nucleation score was -0.234 ± 1.6.

Turning to YIKGDQLVVVDTYMFRVKL, the amyloid nucleation score was -0.991 ± 2.4.

The substance TSPDCKAAKSQGSKCRDRSC had an amyloid nucleation score of -0.495 ± 0.62.

The substance SSSFRHAMRPSSISQRISPC came in with an amyloid nucleation score of 0.354 ± 0.54.

With SNIREPDFRCIGLATF, the amyloid nucleation score is 0.523 ± 0.7.

The substance VWSAMDKALLDSGDGSPMG showed an amyloid nucleation score of 0.138 ± 0.36.

In the case of LTQLYLVTSSTWVNYSYLKW, the amyloid nucleation score was 0.742 ± 0.58.

In the case of TLFCSGSNAKAGCSEHYYFC, the amyloid nucleation score was determined as 3.04 ± 0.16.

Consider YVPPSMMLNGGDPEYSVGLK, for which the amyloid nucleation score came to 0.082 ± 0.89.

In turn, FSFVSECGLAGFYPRE had an amyloid nucleation score of 0.35 ± 0.55.

Substance LNNLCNGMGGL yielded an amyloid nucleation score of -0.78 ± 0.53.

In the case of LAVDMQRF, the amyloid nucleation score amounted to 0.224 ± 1.4.

Turning to KDEGLTEVFESWISWGW, the amyloid nucleation score is -0.065 ± 0.9.

As to KVIFYEFPTSQRFMGSMYDM, the amyloid nucleation score amounted to 1.88 ± 0.19.

RVSVVQFMSKVPTRLMVIEW showed an amyloid nucleation score of 0.705 ± 0.65.

For GFISIGP, the amyloid nucleation score was -0.068 ± 0.29.

In turn, TRRDNVPQHNLGVTLLMVRE yielded an amyloid nucleation score of -1.29 ± 2.7.

LGSWARD showed an amyloid nucleation score of -0.27 ± 0.54.

As to CALAIRIVCS, the amyloid nucleation score result is “inactive”.

The substance LNSLVKALQSVNNYVDLTYS yielded an amyloid nucleation score of 0.358 ± 1.1.

For the substance FLTQPFAFIVLCGSKYTSSD, the amyloid nucleation score was -0.463 ± 0.48.

Substance YVESGTFTDPRFWVSFAVCF came in with an amyloid nucleation score of 0.791 ± 0.54.

Substance RYMVGSENEIRL gave an amyloid nucleation score of 0.583 ± 0.29.

For LQLTYPPLVVPSSRWCLLLS, the amyloid nucleation score was -0.099 ± 0.97.

Turning to INTFARRAVVSSLSWSLACH, the amyloid nucleation score is 0.317 ± 0.64.

The substance FALIR registered an amyloid nucleation score of 0.81 ± 0.51.

Substance AWNCHKFND returned an amyloid nucleation score of 0.668 ± 0.78.

SIGPFKTYCTAAWP came in with an amyloid nucleation score of -0.502 ± 0.36.

RACDNMYHYRCLLRSTEHHQ: the amyloid nucleation score is -0.185 ± 0.22.

Substance YSYMTYRALFVVTSCLSRWG yielded an amyloid nucleation score of 1.11 ± 0.66.

Take ICFRIIVAIVQRV: the amyloid nucleation score stood at 1.14 ± 0.38.

YYYEPLFPRELHSQLYLL showed an amyloid nucleation score of -0.268 ± 0.8.

PVQLRFRSSNIWTLMNQVFI returned an amyloid nucleation score of 0.612 ± 0.95.

For the substance SCTFKMMMGSVLL, the amyloid nucleation score amounted to 4.45 ± 0.067.

As for CVLPSNYDFV, the amyloid nucleation score entry is “inactive”.

As for VRSFLPMYMF, the amyloid nucleation score was -0.376 ± 1.7.

With TFYKYVGSTISPSFGFRYVG, the amyloid nucleation score is -0.052 ± 0.38.

SLLYSITNVCTLRGRMCCLA displayed an amyloid nucleation score of 0.116 ± 0.45.

For VASTTSGRHWSLRGHKRFGR, the amyloid nucleation score was determined as 1.28 ± 0.72.

As to QWGNLFLWKTIAESLLRD, the amyloid nucleation score turned out to be 1.47 ± 0.67.

Take IIEIRLNLGAVANLSTYGVM: the amyloid nucleation score was found to be 0.327 ± 0.39.

In turn, VNRALAFNCWSALILGNAVV yielded an amyloid nucleation score of -0.608 ± 0.31.

With SVHKWSSKTAMSLRTTYK, the amyloid nucleation score came out at 0.284 ± 0.69.

Consider AQTPRLLKVG, for which the amyloid nucleation score was -1.01 ± 1.8.

The substance IRCVERGVWSCTFHIQGNCF showed an amyloid nucleation score of -0.84 ± 0.91.

In the case of TVGMRYFVWVKGSKTKREER, the amyloid nucleation score came out at 0.674 ± 1.2.

Substance FKFMSLGMSWAT yielded an amyloid nucleation score of 1.61 ± 0.33.

With VSVTVLGRWR, the amyloid nucleation score was 3.55 ± 0.19.

PWYDRPRVSYSAFLVWIQLH came in with an amyloid nucleation score of -0.417 ± 0.93.

In turn, LHTTKK displayed an amyloid nucleation score of 0.293 ± 0.48.

VADCPCLGLVNTLAETMNVC: the amyloid nucleation score was found to be 0.243 ± 0.6.

Substance AKPMNKTEYFSAYLQLHMGI showed an amyloid nucleation score of 3.1 ± 0.12.

In turn, DACGNWCYCWRALDGQDGSI registered an amyloid nucleation score of 0.099 ± 0.31.

(Values after the supplement of paper PMC12042874.)
